In US20250043302A1, “MUTATED HYDROXYPHENYLPYRUVATE DIOXYGENASE POLYPEPTIDE, AND CODING GENE AND USE THEREOF” (BEIJING DABEINONG BIOTECHNOLOGY CO., LTD., priority 2021, published 2025):

Key:
[1] = tested on: Arabidopsis thaliana T1 plants; assay: Mesotrione tolerance of transgenic Arabidopsis thaliana T1 plants (spray, bleached leaf area grade, damage score); format: in vivo; parameters: Scores: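 damage score 0-100 computed as Σ(N×S)/(T×M)×100 over grades 0-3 with higher meaning more damage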; details: Table 12; for Classification and statistics of the grade of pesticide damage Grade 0: number of plants at grade 0; for Classification and statistics of the grade of pesticide damage Grade 1: number of plants at grade 1; for Classification and statistics of the grade of pesticide damage Grade 2: number of plants at grade 2; for Classification and statistics of the grade of pesticide damage Grade 3: number of plants at grade 3; for Scores: pesticide damage score
From the text: (§1) T1 transformants were initially selected from the untransformed seeds using a glufosinate selection scheme. The Arabidopsis thaliana T1 plants (AsHPPD-02) into which the AsHPPD-02 nucleotide sequence was introduced, the Arabidopsis thaliana T1 plants (AsHPPDm-F372A-02) into which the AsHPPDm-F372A-02 nucleotide sequence was introduced, the Arabidopsis thaliana T1 plants (AsHPPDm-F383W-02) into which the AsHPPDm-F383W-02 nucleotide sequence was introduced, the Arabidopsis thaliana T1 plants (AsHPPDm-F372A-F383W-02) into which the AsHPPDm-F372A-F383W-02 nucleotide sequence was introduced, the Arabidopsis thaliana T1 plants (DBN11726N) into which the control recombinant expression vector DBN11726N was introduced, and the wild-type Arabidopsis thaliana plants (CK) (18 days after sowing) were sprayed respectively with topramezone at three concentrations (100 g ai/ha (four-fold field concentration, 4×), 200 g ai/ha (eight-fold field concentration, 8×), and 0 g ai/ha (water, 0×)), isoxaflutole at three concentrations (140 g ai/ha (two-fold field concentration, 2×), 280 g ai/ha (four-fold field concentration, 4×), and 0 g ai/ha (water, 0×)), and mesotrione at three concentrations (210 g ai/ha (two-fold field concentration, […]), 420 g ai/ha (four-fold field concentration, 4×), and 0 g ai/ha (water, 0×)), to determine the tolerance of Arabidopsis thaliana to the herbicides. The degree of damage caused by the herbicide was measured for each plant according to the proportion of bleached leaf area (the proportion of bleached leaf area=bleached leaf area/total leaf area×100%) 7 days after spraying (7 DAT): the case where there is basically no bleached phenotype is defined as grade 0, the case where the proportion of bleached leaf area is less than 50% is defined as grade 1, the case where the proportion of bleached leaf area is more than 50% is defined as grade 2, and the case where the proportion of bleached leaf area is 100% grade is defined as grade 3.
(§2) According to the method as described above in point 6 of Example 1, the aforementioned Arabidopsis thaliana T1 plants and wild-type Arabidopsis thaliana plants (CK) (18 days after sowing) were sprayed respectively with topramezone at three concentrations (25 g ai/ha (one-fold field concentration, 1×). 100 g ai/ha (four-fold field concentration, 4×), and 0 g ai/ha (water, 0×)), isoxaflutole at three concentrations (35 g ai/ha (half-fold field concentration, 0.5×). 70 g ai/ha (one-fold field concentration, 1×), and 0 g ai/ha (water, 0×)), and mesotrione at three concentrations (52.5 g ai/ha (half-fold field concentration, 0.5×), 105 g ai/ha (one-fold field concentration, 1×), and 0 g ai/ha (water, 0×)) to detect the tolerance of Arabidopsis thaliana to the herbicides.
(§3) According to the method as described above in point 6 of Example 1, the aforementioned Arabidopsis thaliana T1 plants and wild-type Arabidopsis thaliana plants (CK) (18 days after sowing) were sprayed with topramezone at three different concentrations (i.e., 100 g ai/ha (four-fold field concentration, 4×), 200 g ai/ha (eight-fold field concentration, 8×) and 0 g ai/ha (water, 0×)), isoxaflutole at three different concentrations (i.e., 140 g ai/ha (two-fold field concentration, 2×), 280 g ai/ha (four-fold field concentration, 4×) and 0 g ai/ha (water, 0×)), and mesotrione at three different concentrations (i.e., 210 g ai/ha (two-fold field concentration, 2×), 420 g ai/ha (four-fold field concentration, 4×) and 0 g ai/ha (water, 0×)) respectively to detect the herbicide tolerance of Arabidopsis thaliana. […]

[2] = tested on: Arabidopsis thaliana T1 plants; assay: Isoxaflutole tolerance of transgenic Arabidopsis thaliana T1 plants (spray, bleached leaf area grade, damage score); format: in vivo; details: Table 11; for Classification and statistics of the grade of pesticide damage Grade 0: number of plants at grade 0; for Classification and statistics of the grade of pesticide damage Grade 1: number of plants at grade 1; for Classification and statistics of the grade of pesticide damage Grade 2: number of plants at grade 2; for Classification and statistics of the grade of pesticide damage Grade 3: number of plants at grade 3; for Scores: pesticide damage score;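 as to Scores: Weighted damage index from 0 to 100 where higher means more damage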
From the text: as §1, §2, §3

B1: AsHPPDm-A107-F372A-02: nucleotide sequence encoding Avena sativa HPPD with A107 deletion+F372A; vector DBN11778 (nucleic acid)
DNA: ATGCCACCTACTCCAGCTACAGCTACTGGTGCTGCTGCTGCTGCCGTTACTCCTGAGCACGCTGCCAGGTCATTCCCCAGGGTGGTTCGCGTGAACCCCAGATCTGATAGGTTCCCAGTTCTGAGCTTCCACCATGTTGAGCTGTGGTGCGCTGATGCTGCTTCTGCTGCTGGCAGGTTCTCTTTCGCTCTTGGTGCTCCACTCGCTGCTAGATCTGATCTGTCTACAGGAAATAGCGCTCATGCCTCACTCCTGCTTCGCTCAGGTGCTTTGGCCTTCCTCTTCACCGCTCCATATGCTCCCCCACCTCAGGAGGCTACTGCTGCTGCTACAGCCTCCATTCCAAGCTTCTCAGCTGATGCCGCTAGAACCTTCGCTGCTGCTCATGGACTTGCCGTGAGGTCTGTTGGTGTTCGCGTGGCTGATGCTGCTGAGGCTTTCAGAGTTTCCGTTGCCGGCGGAGCTAGGCCAGCTTTCGCTCCTGCTGATTTGGGACATGGTTTCGGCCTGGCTGAGGTTGAGCTTTACGGTGACGTGGTTCTCCGCTTCGTGTCTTACCCAGATGAGACTGACCTGCCTTTCCTTCCCGGCTTCGAGAGAGTTTCCTCTCCTGGTGCCGTGGATTACGGCCTGACAAGGTTCGACCACGTGGTTGGAAACGTTCCCGAGATGGCTCCAGTGATCGATTACATGAAGGGCTTCCTTGGATTCCATGAGTTCGCCGAGTTCACTGCTGAGGACGTGGGAACCACTGAGTCCGGTTTGAACTCTGTGGTTCTCGCCAACAATTCTGAGGCTGTTTTGCTCCCTCTGAATGAGCCTGTGCATGGAACCAAGAGGAGAAGCCAGATTCAAACTTACCTGGAGTACCACGGTGGCCCTGGAGTTCAGCATATCGCCCTTGCTTCTAATGATGTGTTGCGCACACTCAGAGAGATGCGCGCCAGAACCCCCATGGGAGGTTTCGAGTTCATGGCCCCACCACAGGCTAAGTACTACGAGGGCGTTAGAAGGATTGCTGGAGACGTGTTGAGCGAGGAGCAGATCAAGGAGTGCCAAGAGCTGGGTGTTCTTGTGGATAGGGATGACCAGGGCGTTCTGCTTCAAATTGCCACTAAGCCAGTGGGCGACCGCCCTACATTCTTCCTTGAGATGATTCAAAGAATCGGCTGCATGGAGAAGGATGAGGTTGGACAGGAGTACCAAAAGGGCGGATGCGGTGGCTTCGGAAAGGGTAACTTCAGCGAGTTGTTCAAGTCAATCGAGGACTACGAGAAGAGCCTCGAGGTGAAGCAGTCAGTGGTTGCCCAAAAGTCCTGA
modifications: AsHPPDm-A107-F372A-02 Nucleotide Sequence
notes: vector DBN11778
Resistance evaluation ([1]; mesotrione 210 g ai/ha (2×)): Moderately
Classification and statistics of the grade of pesticide damage Grade 0 ([1]; mesotrione 210 g ai/ha (2×)): 6
Classification and statistics of the grade of pesticide damage Grade 1 ([1]; mesotrione 210 g ai/ha (2×)): 7
Classification and statistics of the grade of pesticide damage Grade 2 ([1]; mesotrione 210 g ai/ha (2×)): 1
Classification and statistics of the grade of pesticide damage Grade 3 ([1]; mesotrione 210 g ai/ha (2×)): 2
Scores ([1]; mesotrione 210 g ai/ha (2×)): 31
Resistance evaluation ([1]; mesotrione 420 g ai/ha (4×)): Poorly resistant
Classification and statistics of the grade of pesticide damage Grade 0 ([1]; mesotrione 420 g ai/ha (4×)): 1
Classification and statistics of the grade of pesticide damage Grade 1 ([1]; mesotrione 420 g ai/ha (4×)): 7
Classification and statistics of the grade of pesticide damage Grade 2 ([1]; mesotrione 420 g ai/ha (4×)): 8
Classification and statistics of the grade of pesticide damage Grade 3 ([1]; mesotrione 420 g ai/ha (4×)): 0
Scores ([1]; mesotrione 420 g ai/ha (4×)): 48
Resistance evaluation ([2]; isoxaflutole 140 g ai/ha (2×)): Moderately
Classification and statistics of the grade of pesticide damage Grade 0 ([2]; isoxaflutole 140 g ai/ha (2×)): 5
Classification and statistics of the grade of pesticide damage Grade 1 ([2]; isoxaflutole 140 g ai/ha (2×)): 7
Classification and statistics of the grade of pesticide damage Grade 2 ([2]; isoxaflutole 140 g ai/ha (2×)): 4
Classification and statistics of the grade of pesticide damage Grade 3 ([2]; isoxaflutole 140 g ai/ha (2×)): 0
Scores ([2]; isoxaflutole 140 g ai/ha (2×)): 31
Resistance evaluation ([2]; isoxaflutole 280 g ai/ha (4×)): Poorly resistant
Classification and statistics of the grade of pesticide damage Grade 0 ([2]; isoxaflutole 280 g ai/ha (4×)): 0
Classification and statistics of the grade of pesticide damage Grade 1 ([2]; isoxaflutole 280 g ai/ha (4×)): 1
Classification and statistics of the grade of pesticide damage Grade 2 ([2]; isoxaflutole 280 g ai/ha (4×)): 15
Classification and statistics of the grade of pesticide damage Grade 3 ([2]; isoxaflutole 280 g ai/ha (4×)): 0
Scores ([2]; isoxaflutole 280 g ai/ha (4×)): 65
